Experimental data from patent publication US20230059181A1 (EPSILOGEN, published 2023).

T1: Human FcεRIα (Fc epsilon RI alpha), His-tagged (human, UniProt P12319 26-205)
T1 construct: also called FceRIa; hFcεR1
T1 sequence (looked up): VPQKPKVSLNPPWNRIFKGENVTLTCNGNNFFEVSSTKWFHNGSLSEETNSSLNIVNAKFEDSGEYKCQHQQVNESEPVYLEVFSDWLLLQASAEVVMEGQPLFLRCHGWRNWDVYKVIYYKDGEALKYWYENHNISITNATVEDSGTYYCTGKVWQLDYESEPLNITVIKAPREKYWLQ


Legend:
[1] = molecular target: T2, HMW-MAA (high molecular weight-melanoma associated antigen) on A375 cells (UniProt Q6UVK1 30-2322); experiment: flow cytometry on A375 cells, FITC goat anti-human IgG secondary
T2 construct: whole, on cells; also called CSPG4; chondroitin sulfate proteoglycan 4
T2 sequence (Q6UVK1 30-2322): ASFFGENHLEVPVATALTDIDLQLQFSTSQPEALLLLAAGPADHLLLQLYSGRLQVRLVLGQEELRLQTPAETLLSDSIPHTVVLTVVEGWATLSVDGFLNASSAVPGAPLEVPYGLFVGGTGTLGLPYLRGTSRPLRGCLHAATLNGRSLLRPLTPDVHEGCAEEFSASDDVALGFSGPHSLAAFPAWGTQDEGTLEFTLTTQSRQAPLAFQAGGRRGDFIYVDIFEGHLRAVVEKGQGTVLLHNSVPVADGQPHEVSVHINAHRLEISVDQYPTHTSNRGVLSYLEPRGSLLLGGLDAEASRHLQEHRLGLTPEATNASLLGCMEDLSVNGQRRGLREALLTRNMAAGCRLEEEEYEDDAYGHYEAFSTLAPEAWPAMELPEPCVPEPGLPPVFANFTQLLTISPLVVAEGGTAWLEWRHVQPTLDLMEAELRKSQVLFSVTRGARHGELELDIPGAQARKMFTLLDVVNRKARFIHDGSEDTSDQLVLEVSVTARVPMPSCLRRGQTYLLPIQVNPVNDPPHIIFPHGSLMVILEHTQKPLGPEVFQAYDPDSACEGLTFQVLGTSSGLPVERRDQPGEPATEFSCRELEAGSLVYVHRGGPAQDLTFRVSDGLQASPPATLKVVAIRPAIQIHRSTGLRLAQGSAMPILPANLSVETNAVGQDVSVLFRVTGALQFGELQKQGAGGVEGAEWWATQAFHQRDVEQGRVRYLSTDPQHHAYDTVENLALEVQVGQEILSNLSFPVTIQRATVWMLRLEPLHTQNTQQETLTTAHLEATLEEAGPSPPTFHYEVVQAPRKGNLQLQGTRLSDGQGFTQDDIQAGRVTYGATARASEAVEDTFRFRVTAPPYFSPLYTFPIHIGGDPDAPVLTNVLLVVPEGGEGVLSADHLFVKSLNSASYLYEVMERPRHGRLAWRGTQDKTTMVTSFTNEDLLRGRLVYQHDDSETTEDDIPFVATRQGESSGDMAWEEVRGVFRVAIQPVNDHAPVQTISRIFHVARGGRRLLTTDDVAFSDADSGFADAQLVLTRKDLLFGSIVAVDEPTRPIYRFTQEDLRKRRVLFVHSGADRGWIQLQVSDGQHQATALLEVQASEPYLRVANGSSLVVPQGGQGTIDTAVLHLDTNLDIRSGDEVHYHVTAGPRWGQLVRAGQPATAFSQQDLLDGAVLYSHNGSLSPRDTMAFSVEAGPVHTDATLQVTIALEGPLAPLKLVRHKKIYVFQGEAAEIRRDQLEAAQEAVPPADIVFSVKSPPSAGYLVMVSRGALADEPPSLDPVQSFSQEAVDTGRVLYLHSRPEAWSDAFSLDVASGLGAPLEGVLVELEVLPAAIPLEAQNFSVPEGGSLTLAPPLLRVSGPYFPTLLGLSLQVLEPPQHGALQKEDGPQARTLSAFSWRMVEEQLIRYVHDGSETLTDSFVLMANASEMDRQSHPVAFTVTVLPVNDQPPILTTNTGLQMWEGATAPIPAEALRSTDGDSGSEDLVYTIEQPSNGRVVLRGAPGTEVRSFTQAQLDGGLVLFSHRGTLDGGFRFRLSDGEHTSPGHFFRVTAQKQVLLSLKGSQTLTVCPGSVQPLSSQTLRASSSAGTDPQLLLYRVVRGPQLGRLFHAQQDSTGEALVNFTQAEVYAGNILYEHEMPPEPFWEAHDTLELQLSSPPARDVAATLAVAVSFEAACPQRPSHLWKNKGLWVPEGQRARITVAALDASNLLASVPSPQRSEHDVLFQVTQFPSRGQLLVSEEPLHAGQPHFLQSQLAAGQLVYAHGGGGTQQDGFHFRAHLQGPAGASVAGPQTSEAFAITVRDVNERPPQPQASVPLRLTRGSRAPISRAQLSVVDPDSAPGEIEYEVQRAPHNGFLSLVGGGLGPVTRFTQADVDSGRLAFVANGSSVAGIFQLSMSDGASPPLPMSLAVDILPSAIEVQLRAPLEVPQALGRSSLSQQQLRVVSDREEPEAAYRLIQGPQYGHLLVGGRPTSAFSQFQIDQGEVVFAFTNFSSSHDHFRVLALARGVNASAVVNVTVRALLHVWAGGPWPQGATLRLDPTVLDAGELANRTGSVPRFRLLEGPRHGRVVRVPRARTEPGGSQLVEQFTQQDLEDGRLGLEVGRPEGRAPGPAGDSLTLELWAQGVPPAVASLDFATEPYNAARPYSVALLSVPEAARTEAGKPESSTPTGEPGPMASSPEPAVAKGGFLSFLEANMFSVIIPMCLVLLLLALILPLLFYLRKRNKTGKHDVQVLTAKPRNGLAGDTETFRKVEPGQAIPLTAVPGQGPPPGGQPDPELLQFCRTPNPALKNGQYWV
Method: (§1) A375 cells were cultured using standard methods. When A375 cells were confluent, the cells were harvested. In brief, cells were washed with PBS before incubation with TrypLE™ at 37° C. for 10 minutes to detach the cells from the flask. Cells were resuspended in 10 mL of media and centrifuged for 3 minutes at 250 g. Cells were then resuspended in 1 mL FACS buffer and counted on the Cellometer® to determine the cell number and viability. Following this, cells were diluted to 1×10⁶ cells per mL with FACS buffer, and 100 μL of this cell suspension plated per well on a plate.
(§2) Binding of purified IGEGs to A375 cells (ATCC, Virginia, US) was assessed by flow cytometry using a Attune® NxT Acoustic Focusing Cytometer running Attune Software V3.1.2 (ThermoFisher Scientific, Loughborough, UK). […] Cells were washed and resuspended in FACS buffer and then acquired on the Attune® NxT Acoustic Focusing Cytometer. The data was analysed using FlowJo™ Software Version 10 (Becton, Dickinson and Company, New Jersey, US) and GraphPad Prism 8 (GraphPad Software, California, US).

[2] = molecular target: T3, Human CD64 (FcγRI), His-tagged (human, UniProt P12314 16-288); experiment: SPR single cycle, 1:1 fit, His-tagged receptor captured, antibody as analyte
T3 construct: also called FcgRI; hFcγRI
T3 sequence (P12314 16-288 limits assumed): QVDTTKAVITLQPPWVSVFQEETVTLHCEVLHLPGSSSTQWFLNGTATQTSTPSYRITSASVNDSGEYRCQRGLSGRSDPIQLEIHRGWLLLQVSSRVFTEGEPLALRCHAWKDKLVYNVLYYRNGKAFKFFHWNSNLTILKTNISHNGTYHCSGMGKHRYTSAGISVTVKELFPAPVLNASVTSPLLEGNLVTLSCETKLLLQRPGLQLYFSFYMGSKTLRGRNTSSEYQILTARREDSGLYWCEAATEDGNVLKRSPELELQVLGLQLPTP
From the text: (§3) FcRs were captured on a CM5 sensor chip pre-coupled using a His capture kit (Cytiva, Uppsala, Sweden) using standard amine chemistry.
(§4) At the start of each cycle His-tagged Fc receptors diluted in HEPES buffered saline containing 0.05% v/v Surfactant P20 (HBS-P+) were loaded to a specified RU level (Table 7). A five point, three-fold dilution range of test antibody without regeneration between each concentration was used for each receptor tested. […] In all cases, antibodies were passed over the chip in increasing concentrations followed by a single dissociation step. Following dissociation, the chip was regenerated with two injections of Glycine pH 1.5. The signal from the reference channel Fc1 (blank) was subtracted from that of the Fc loaded with receptor to correct for differences in non-specific binding to the reference surface.

[3] = molecular target: T1, Human FcεRIα (Fc epsilon RI alpha), …; experiment: as above
From the text: as §3, §4

[4] = molecular target: T4, Human CD16A 176 Val (FcγRIIIA176Val), His-tagged (human, UniProt P08637 17-208); experiment: SPR single cycle, steady state fit, His-tagged receptor captured, antibody as analyte
T4 construct: also called FcγRIIIA (CD16A); hFcγRIIIa 176V
T4 sequence (P08637 17-208 F176V limits assumed): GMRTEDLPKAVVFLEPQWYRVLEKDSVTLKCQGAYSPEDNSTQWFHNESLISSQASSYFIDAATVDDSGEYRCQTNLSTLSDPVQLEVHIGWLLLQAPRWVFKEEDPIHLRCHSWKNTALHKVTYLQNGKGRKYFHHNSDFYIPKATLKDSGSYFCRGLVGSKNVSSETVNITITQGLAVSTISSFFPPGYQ
From the text: as §3, §4

[5] = molecular target: T5, Human CD16A 176 Phe (FcγRIIIA176Phe), His-tagged (human, UniProt P08637 17-208); experiment: as above
T5 construct: also called hFcγRIIIa 176F
T5 sequence (P08637 17-208 limits assumed): as the sequence (P08637 17-208 F176V limits assumed) above, with V160F counted along it
From the text: as §3, §4

[6] = molecular target: T6, Human CD16B (FcγRIIIB), His-tagged (human, UniProt O75015 17-200); experiment: as above
T6 construct: also called hFcγRIIIb
T6 sequence (O75015 17-200 limits assumed): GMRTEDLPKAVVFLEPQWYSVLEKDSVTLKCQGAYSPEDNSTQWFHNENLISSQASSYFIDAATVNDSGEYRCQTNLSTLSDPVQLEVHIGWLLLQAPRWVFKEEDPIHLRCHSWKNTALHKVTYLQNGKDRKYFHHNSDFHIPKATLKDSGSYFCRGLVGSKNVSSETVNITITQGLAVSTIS
From the text: as §3, §4

[7] = molecular target: T7, Human FcRn (neonatal Fc receptor) (human, UniProt P55899 24-297; P61769 21-119); experiment: SPR steady state, pH 6.0, FcRn amine-coupled, antibody as analyte; pH 6.0; 31.25 nM to 2000 nM antibody over hFcRn on the chip
T7 construct: also called hFcRn
T7 sequence (P55899 24-297 limits assumed, chain 1 of 2): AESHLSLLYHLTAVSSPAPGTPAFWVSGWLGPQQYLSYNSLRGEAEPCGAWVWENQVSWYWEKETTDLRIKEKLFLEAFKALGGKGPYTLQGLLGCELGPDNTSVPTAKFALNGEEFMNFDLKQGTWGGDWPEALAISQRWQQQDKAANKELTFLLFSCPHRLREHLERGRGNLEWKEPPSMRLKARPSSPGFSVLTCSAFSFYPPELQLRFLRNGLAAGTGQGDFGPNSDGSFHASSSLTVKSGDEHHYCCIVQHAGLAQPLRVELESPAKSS
T7 sequence (P61769 21-119 limits assumed, chain 2 of 2): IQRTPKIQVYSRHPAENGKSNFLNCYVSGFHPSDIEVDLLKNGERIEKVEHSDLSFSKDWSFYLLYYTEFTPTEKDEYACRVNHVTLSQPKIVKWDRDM
Method: (§5) Antibodies were passed over the chip with increasing concentrations at a flow rate of 30 μl/min and at 25° C. The injection time was 40 s per concentration and the dissociation time was 75 s. […] Interactions were analysed using a steady state model (see FIGS. 19a to 19d for example data).

[8] = molecular target: T5, Human CD16A 176 Phe (FcγRIIIA176Phe), …; experiment: SPR single cycle, His-tagged receptor captured, antibody as analyte
From the text: as §3, §4

[9] = molecular target: T6, Human CD16B (FcγRIIIB), His-tagged; experiment: as above
From the text: as §3, §4

[10] = molecular target: T2, HMW-MAA (high molecular weight-melanoma …); experiment: flow cytometry on A375 cells, FITC goat anti-human IgE secondary
Method: as §1, §2

[11] = molecular target: T7, Human FcRn (neonatal Fc receptor); experiment: SPR (Biacore T200), hFcRn amine-coupled to CM5 chip, antibody as analyte 31.25-2000 nM, pH 6.0, raw sensorgrams
Method: as §5

[12] = molecular target: T3, Human CD64 (FcγRI), His-tagged; experiment: SPR (Biacore T200) single cycle kinetics, His-tagged FcγRI captured on anti-His chip, antibody as analyte 0.411-33.33 nM
From the text: as §3, §4

[13] = molecular target: T4, Human CD16A 176 Val (FcγRIIIA176Val), …; experiment: SPR (Biacore T200) single cycle, His-tagged FcγRIIIA176Val captured on anti-His chip, antibody as analyte, raw sensorgrams
From the text: as §3, §4

[14] = molecular target: T7, Human FcRn (neonatal Fc receptor); experiment: SPR (Biacore T200), hFcRn amine-coupled to CM5 chip, antibody as analyte 31.25-2000 nM, pH 6.0, raw sensorgrams [Continued]
Method: as §5

Binder | binding result [1] | Kd [2] [nM] | Kd [3] [nM] | Kd [4] [nM] | Kd [5] [nM] | Kd [6] [nM] | Kd [7] [nM] | binding result [8] | binding result [9] | binding result [10] | binding result [11] | binding result [12] | binding result [13] | binding result [14]
HMW-MAA_IGEG (HMW-MAA IgE IgG-Fc) (antibody, also called CH IGEG) heavy: not shown light: DIQLTQSPSFLSASVGDRVTITCKASQNVDTNVAWYQQKPGKAPKPLLFSASYRYTGVPSRFSGSGSGTDFTLTISSLQPEDFATYFCQQYNSYPLTFGGGTKVEIKRTVAAPSVFIFPPSDEQLKSGTASVVCLLNNFYPREAKVQWKVDNALQSGNSQESVTEQDSKDSTYSLSSTLTLSKADYEKHKVYACEVTHQGLSSPVTKSFNRGEC | binds | 1.63 | 0.599 | 386 | 665 | 1480 | 1020 |  |  |  |  |  |  | 
HMW-MAA_IgE (antibody, also called HMW-MAA IgE-WT; anti-HMW-MAA IgE) heavy: EVQLVQSGGGLVQPGGSLKLSCAVSGFTFSNYWMNWVRQAPGKGLEWVGEIRLKSNNFGRYYAESVKGRFTISRDDSKNTAYLQMNSLKTEDTAVYYCTSYGNYVGHYFDHWGQGTLVTVSSASTQSPSVFPLTRCCKNIPSNATSVTLGCLATGYFPEPVMVTWDTGSLNGTTMTLPATTLTLSGHYATISLLTVSGAWAKQMFTCRVAHTPSSTDWVDNKTFSVCSRDFTPPTVKILQSSCDGGGHFPPTIQLLCLVSGYTPGTINITWLEDGQVMDVDLSTASTTQEGELASTQSELTLSQKHWLSDRTYTCQVTYQGHTFEDSTKKCADSNPRGVSAYLSRPSPFDLFIRKSPTITCLVVDLAPSKGTVNLTWSRASGKPVNHSTRKEEKQRNGTLTVTSTLPVGTRDWIEGETYQCRVTHPHLPRALMRSTTKTSGPRAAPEVYAFATPEWPGSRDKRTLACLIQNFMPEDISVQWLHNEVQLPDARHSTTQPRKTKGSGFFVFSRLEVTRAEWEQKDEFICRAVHEAASPSQTVQRAVSVNPGK light: DIQLTQSPSFLSASVGDRVTITCKASQNVDTNVAWYQQKPGKAPKPLLFSASYRYTGVPSRFSGSGSGTDFTLTISSLQPEDFATYFCQQYNSYPLTFGGGTKVEIKRTVAAPSVFIFPPSDEQLKSGTASVVCLLNNFYPREAKVQWKVDNALQSGNSQESVTEQDSKDSTYSLSSTLTLSKADYEKHKVYACEVTHQGLSSPVTKSFNRGEC |  |  | 0.508 |  |  |  |  | no binding (tested: 8000 nM) | no binding (tested: 8000 nM) | binds | no binding (tested: 2000 nM) | no binding (tested: 33.33 nM) | no binding (tested: 3e-6 M (top point of FIG. 17D)) | 
HMW-MAA_IGEG-C220S-dFcRn (antibody) heavy: EVQLVQSGGGLVQPGGSLKLSCAVSGFTFSNYWMNWVRQAPGKGLEWVGEIRLKSNNFGRYYAESVKGRFTISRDDSKNTAYLQMNSLKTEDTAVYYCTSYGNYVGHYFDHWGQGTLVTVSSASTQSPSVFPLTRCCKNIPSNATSVTLGCLATGYFPEPVMVTWDTGSLNGTTMTLPATTLTLSGHYATISLLTVSGAWAKQMFTCRVAHTPSSTDWVDNKTFSVCSRDFTPPTVKILQSSCDGGGHFPPTIQLLCLVSGYTPGTINITWLEDGQVMDVDLSTASTTQEGELASTQSELTLSQKHWLSDRTYTCQVTYQGHTFEDSTKKCADSNPRGVSAYLSRPSPFDLFIRKSPTITCLVVDLAPSKGTVNLTWSRASGKPVNHSTRKEEKQRNGTLTVTSTLPVGTRDWIEGETYQCRVTHPHLPRALMRSTTKTSGPRAAPEVYAFATPEWPGSRDKRTLACLIQNFMPEDISVQWLHNEVQLPDARHSTTQPRKTKGSGFFVFSRLEVTRAEWEQKDEFICRAVHEAASPSQTVQRAVSVNPGKRSEPKSSDKTHTCPPCPAPELLGGPSVFLFPPKPKDTLMASRTPEVTCVVVDVSHEDPEVKFNWYVDGVEVHNAKTKPREEQYNSTYRVVSVLTVLAQDWLNGKEYKCKVSNKALPAPIEKTISKAKGQPREPQVYTLPPSREEMTKNQVSLTCLVKGFYPSDIAVEWESNGQPENNYKTTPPVLDSDGSFFLYSKLTVDKSRWQQGNVFSCSVMHEALHNAYTQKSLSLSPGK light: DIQLTQSPSFLSASVGDRVTITCKASQNVDTNVAWYQQKPGKAPKPLLFSASYRYTGVPSRFSGSGSGTDFTLTISSLQPEDFATYFCQQYNSYPLTFGGGTKVEIKRTVAAPSVFIFPPSDEQLKSGTASVVCLLNNFYPREAKVQWKVDNALQSGNSQESVTEQDSKDSTYSLSSTLTLSKADYEKHKVYACEVTHQGLSSPVTKSFNRGEC | binds | 2.18 | 0.535 | 601 | 1160 | 2780 |  |  |  |  |  |  |  | no binding (tested: 2000 nM)
HMW-MAA_IGEG-dFcRn (antibody, human IgG1, kappa) heavy: EVQLVQSGGGLVQPGGSLKLSCAVSGFTFSNYWMNWVRQAPGKGLEWVGEIRLKSNNFGRYYAESVKGRFTISRDDSKNTAYLQMNSLKTEDTAVYYCTSYGNYVGHYFDHWGQGTLVTVSSASTQSPSVFPLTRCCKNIPSNATSVTLGCLATGYFPEPVMVTWDTGSLNGTTMTLPATTLTLSGHYATISLLTVSGAWAKQMFTCRVAHTPSSTDWVDNKTFSVCSRDFTPPTVKILQSSCDGGGHFPPTIQLLCLVSGYTPGTINITWLEDGQVMDVDLSTASTTQEGELASTQSELTLSQKHWLSDRTYTCQVTYQGHTFEDSTKKCADSNPRGVSAYLSRPSPFDLFIRKSPTITCLVVDLAPSKGTVNLTWSRASGKPVNHSTRKEEKQRNGTLTVTSTLPVGTRDWIEGETYQCRVTHPHLPRALMRSTTKTSGPRAAPEVYAFATPEWPGSRDKRTLACLIQNFMPEDISVQWLHNEVQLPDARHSTTQPRKTKGSGFFVFSRLEVTRAEWEQKDEFICRAVHEAASPSQTVQRAVSVNPGKRSEPKSCDKTHTCPPCPAPELLGGPSVFLFPPKPKDTLMASRTPEVTCVVVDVSHEDPEVKFNWYVDGVEVHNAKTKPREEQYNSTYRVVSVLTVLAQDWLNGKEYKCKVSNKALPAPIEKTISKAKGQPREPQVYTLPPSREEMTKNQVSLTCLVKGFYPSDIAVEWESNGQPENNYKTTPPVLDSDGSFFLYSKLTVDKSRWQQGNVFSCSVMHEALHNAYTQKSLSLSPGK light: DIQLTQSPSFLSASVGDRVTITCKASQNVDTNVAWYQQKPGKAPKPLLFSASYRYTGVPSRFSGSGSGTDFTLTISSLQPEDFATYFCQQYNSYPLTFGGGTKVEIKRTVAAPSVFIFPPSDEQLKSGTASVVCLLNNFYPREAKVQWKVDNALQSGNSQESVTEQDSKDSTYSLSSTLTLSKADYEKHKVYACEVTHQGLSSPVTKSFNRGEC | binds | 2.02 | 0.556 | 535 | 960 | 2030 |  |  |  |  |  |  |  | no binding (tested: 2000 nM)
HMW-MAA_IGEG-C220S (HMW-MAA IgE-IgG-Fc C220S) (antibody) heavy: not shown light: DIQLTQSPSFLSASVGDRVTITCKASQNVDTNVAWYQQKPGKAPKPLLFSASYRYTGVPSRFSGSGSGTDFTLTISSLQPEDFATYFCQQYNSYPLTFGGGTKVEIKRTVAAPSVFIFPPSDEQLKSGTASVVCLLNNFYPREAKVQWKVDNALQSGNSQESVTEQDSKDSTYSLSSTLTLSKADYEKHKVYACEVTHQGLSSPVTKSFNRGEC | binds | 1.67 | 0.493 | 400 | 775 | 1870 | 1050 |  |  |  |  |  |  | 
